Data as given in the DeepSol protein solubility set.

Experiment: soluble on expression in E. coli; label from the status in PepcDB or PDB records
In the case of “MSDALTLTAAKKNARNRIRAARLARSTADLHADNAAILNQLTALIRTINATRAAAYMPEVTEPGGVDFADNLTGILSELWIPKSLPNRQLVWGHYSGGDSVERGTFGILEPTTPSRSSDILHDVDLIIVPALGITPSGRRLGQGAGYYDRALAGVATPTVAILFDSEVNTTIPFEPHDATCDWIITPEGTKQVT”, the “soluble on expression in E. coli” value is reported as “not soluble”. With “MSDATNNAVLVRNLSPEVTKQTLLDFFSFCGEISAVKIRPSVGEGGSSSSGSPTEAMEALVIFENQSAKKTALVLDSATLKKRKISVMDATEELVSSFKDVREVDLARDSTDVPETATARQERLQGLREEFDRAIKRASDKLSDFNEKHRITEKVQEFGDLTKRKTQEINEQYRLTERAREGWQTVREKTRELDERLHLSESARDGWRSLKASVSKIMQKDRGGEVDKA” the “soluble on expression in E. coli” value was “soluble”. For “MSDATYADAVIMEMNGRDIEIVSIKPQTTTGRKPVKTMNRNGRVNGYCDGVTEHKLSVTAAIPIDGTEIDWDNITKAKITIYPINDEDRRTSYLDCFTVDTGEQYEVDNEARIDIEMIALHKIKE”, the “soluble on expression in E. coli” value was “not soluble”. With “MSDDKKSLINIELLPKELITNLFGPATKSIGEGLGGIVNYVVGPLRKLNVVSEKSYIDFVEKINSKTDSIPVDNRDDSKLGFALKTMEDARYQLEDEDMREYFSNLLAGLVDNRKNQDSSPRFSIILSELTTIDANLLKKLYKLSITPTIKVRVQAPNGNGIDYIENLILTQKGIVENNFSDLSPSLQTLRSYGLIDIRPSIELTQKKHTKIYDDFENSTYFKTLKYNLNSFFANSSFFKDTGFSIISIRGSIHVTDLGFLFCSKIFSSEEE” the “soluble on expression in E. coli” value was “not soluble”. For “MSDDPNTTQERAMEGPSENQAARQLEGNQEEAQRQPKEEQADREEAKGEEEAPQVAAALPIPDSPFLTELARLLRGSLRPYLNTEPDEVIEAARQDHQLDQEVANENLLQYICRTLVESNDMGKLAEIRELFARTPEDPAFNTPAGIDDSAMNQFYELIRDCRVVPEDDQTFVPRQALATRIHLIIDSFQARRESEFLRQWCQQNIVCLLYGNPVPEMKDFAYRILIEMLTSSSTWTAELESFANELSRKRGTFINDYWATIRDQNEAGDLDPKRTLFADFRDQHSVFGNVQFDIFRERLAQLEKLWHSQMRMFDVPDKVLCVTGIVTDTMTEMLMGVKDGKPNITPFLKKARIFYRLSDGAETSEAPAEASARASEAPEAPALPPKRSRGIKRKLSEYAEELFESKKPKSDELPTAEQWMYFLQHCLQGPEQDEQRGGNQ”, the “soluble on expression in E. coli” value was “not soluble”. In the case of “MSDEWEQLTVELRKIPRGTEAAPQYLRHLMKMFVADFETAVSKRFDVKFWNKLKSMMDEITKAMENDRLVNHNVQNLAIGFLTDLSLLVHYHYEIPNYGNDISKQLTWTPDVFLNRKPIKSKKNSRVFMAYVLLRMGDLMRYKENYPKAQEYYEQSCRINPADGAVWNQLGLISSLGAKNLESVYFHTRALHATMEFPTASGGLTNIFKNFANRDISRPMPIKDLYLSCLGRIHFLLEIEDSSVHLQKIGEEAATSKEMIVPLMSVYKHLEDGTELEQRAVEYVKTIWCTAYRSLLKTLDDYKEESKKLADVPHLLHILALLLCAPKLLRGIEDQTEDEVTSICEWLLCANCDEKIKDSDAFGYFHCLQRIQYPLTRTQLAQKLVEIEDEDESKDSDQSTIPEEDQKSLSTDTSRIQNEDSEPESESESSDEEVLQRGRRRGRNPNLDESVETDEDEF”, the “soluble on expression in E. coli” value is reported as “not soluble”. In the case of “MSDGQYGPISAGIIRSITDKSYERRKAAALDVEKLVRDLFNNNQLSQLDKCLSVLGELINSGNSNQRKGGLIGMAAASIALGNKNAPPYTAKLVEPIIPCFHDADLQIRYYACESLYNIAKICKTSVLAHFEDIFDVLWRVTADSDQNVRGGAELLNRLITEIVLSEQEFDIAILMSLIRDRIYTQTSSNRRFILEWLNTIDSAPFFSFCNYISEISDGLFKMLGEQAPAVRDLCETVLGNFLTAIRSKPESLSLEDRIQMINVLVVHTHENEPFLARKLSLIWLEEFVKLYKTDLLVMLSTCLVGILPSIVETELKADAVNRLLMALVGEAKLEQDILDKTIEVLLKYIKYDVVETRVTVLNWIRHLHSSMPGQLFVHMHQIFPVLLNTLSDTSDEVLLLDLFLISNICQSESAPDQVDVSTFGLNETELKQVSHISPFLIKFVLSLLEMFRTEPTLLRERGVLIIRQLCLLLEPAHIYRVICVLLERESKHNFAQEMVSTLHGVLLTATELFILRDELRALSNESSRSLFECIFRVWSNRPIALLGLCLLSQHYQQAADIALLLSQVDITVDVLLEIDKLVNLVESPVLAYVRMDLLSSIHRPPLCTVLSALLMLLPQSEAFVTLHKRLQAVPALVSIDNSPYAPKVPPCRIDFPPLMLHFKAALARRQTEVRSRHRDLLSGVVTQMKNVKI”, the “soluble on expression in E. coli” value is reported as “not soluble”. In the case of “MSDGSMDDDGRLFPDLGSSTHDNREIRVRFLNRCAYPVDVFWLNPSKQPTKYGTLAQKKYLDIKTFKDHPWVARRSFDGCKVLVNEKEVFWPEPAPRMNLIVRNHCVITMKVQSLREIAGRSFLRHNPTEVPNKIKGLPRELQFEVKHFLDRKQEYSEIVCRSIPPPGPQRPQQ”, the “soluble on expression in E. coli” value is reported as “not soluble”. In the case of “MSDIESLGEAAGLFEEPEDFLPPPPKPHFAEYQRSHITKESKSDVKDIKLRLVGTSPLWGHLLWNAGIYTANHLDSHPELIKGKTVLELGAAAALPSVICALNGAQMVVSTDYPDPDLMQNIDYNIKSNVPEDFNNVSTEGYIWGNDYSPLLAHIEKIGNNNGKFDLIILSDLVFNHTEHHKLLQTTKDLLAEKGQALVVFSPHRPKLLEKDLEFFELAKNEFHLVPQLIEMVNWKPMFDEDEETIEVRSRVYAYYLTHEK”, the “soluble on expression in E. coli” value is reported as “soluble”. In the case of “MSDIKNITKLQIEDKGKKYSLYSLKKLSQELGKDVTRLPYSIRVLLENQLRNIDGYKVKEDDMHKVLDWDAKASSRPEIPHMPARVVMQDFTGVPAVVDLAAMRKAIKDAGGDADKINPLVDTAMVIDHSVQVDFYGTKTALAQNVAKEFERNGERYSLLKWAQKAFDDFIVVPPGMGIIHQVNLEYLAKGALVKNINGEDVIYPDTLVGTDSHTTMINGVGVVGWGVGGIEAEAVMLGQPYYMVLPDVVGVKFTGKLKTGVTATDLVLKVTEVLRKHGVVGKFVEYYGEGLESLSLPDRATIANMAPEYGATIGFFPVDEVTLDFFNNTNRSELVDAAREMYKEQLLFRENPAEEPEYSSIVEIDLSEVESNLAGPKRPQDRVAFHDMKKAFAEALVHEQGLHGFGLTDEQLQKLAEVKGLNERITHGSVAIAAITSCTNTSNPSLLLGAGLLAKKANEKGLKVKPFVKTSLAPGSQVVTQYLEKANLLPELENLGFNLVGYGCTTCIGNSGPLDEPVVEAINEADLIVASVSSGNRNFEGRINPHVKANYLASPIHVVAYALAGTVDFDPVEDAIGKDAEGNDVYLADIWPTTEEIAAIQSHVINSDMFKKAYATVLDGTEDWQKLKAPEGKLYEFDSSSTYIQCPNFFEKFAEGNDDLDIKGARTLLMLGDSVTTDHISPAGAIPEEYPAGQYLKSHGVEKKDFNSYGSRRGNHEVMMRGTFANIRIRNLLLDNVEGGFTKYHLDGSQQYVFDAAMKYKEKGIPLVILAGKEYGTGSSRDWAAKGTFLLGVKAVIAESYERIHRSNLVGMGVLPLEYVNGQNAKTLGLDGTEMFNIKNLNNIKPRQIVIVEAVHPKTAHTTTFEALARLDADVDVDYLKNGGILQTVLKDIMGDKKESKSTQSTTSKGCGSADTSSETSCPFAKIANFFKKLFK”, the “soluble on expression in E. coli” value is reported as “not soluble”. With “MSDKDDLIVAGVNQKDKGIWRDFYDRYYAALCSYVEKILFLTDAVEDLVQEVFISVWEGKRTFSDSRELTNYLYRACYNNALLYIRNHQIHDSILNGLPQEEDFEDEEMLYALTVKEEAIRQLYFYIEELPAEQRRIILLRIEGHSWDEIASRLGVSINTVKTQKSRSYKFLREKLANSSYSVLLALIFY” the “soluble on expression in E. coli” value was “not soluble”. With “MSDKRRYFGTDGVRGKVGQYPITPDFVLKLGWAAGRVLAKQGTRKVIIGKDTRISGYMLESALEAGLAAAGLKATFTGPMPTPAVAYLTQTFRAEAGIVISASHNPYYDNGIKFFSYEGTKLPDDIELAIEAELDKDIECVESAELGKASRMVDAAGRYIEFCKSTFPSKLSLSGLKLVVDCANGATYHIAPNVFRELGAEVIAMGVEPNGLNINDQVGATDVRALQKRVVEEHAHLGLAFDGDGDRIIMVDHLGNKVDGDQIAYIIARDALRRGELKGGVVGTLMTNLGMENGLKQLGIPFVRAAVGDRYVMEKLLEKGWKIGAENSGHVILLDKVTTGDAIVAGLQVLASVVGSEMTLHELAKGMTLYPQVLENVRFAGDNNPLEADAVKAAVSEVEAELGSKGRVLLRKSGTEPLIRVMVEGEDETLVKQSALKIAQAVKDNC” the “soluble on expression in E. coli” value was “not soluble”. For “MSDMNNPADDNNGAMDDLWAEALSEQKSTSEKSAADAVFQQFGGGDVSGTLQDIDLIMDIPVKLTVELGRTRMTIKELLRLTQGSVVALDGLAGEPLDILINGYLIAQGEVVVVADKYGVRITDIITPSERMRRLSR”, the “soluble on expression in E. coli” value was “not soluble”. For “MSDMSDLEDDQTGHCGSGEHSGPFDPKRHAREQHNALERRRRDNIKDMYTSLREVVPDANGERVQASRAVILKKAIESIEKGQSDSATLSVDVAEQESKNAKLREEIARLKAKKDPSSSQSIIQ”, the “soluble on expression in E. coli” value was “not soluble”. For “MSDNEIVAGIMRDHIINLLKEGKRIDDRGFEDYRPIEIEVGIIEKAEGSALVKLGSTQVLVGIKTTLGEPFPDTPNMGVMTTNVELVPLASPTFEPGPPDERAIELARVTDRGIRESRALNLEKMVIVPGKIVRVVFIDVHVLDHDGNLMDAIGIASIAALLNAKVPKVEYNEETGEVEILEEKEPLPVERIPIPVTFAKIGNILVVDPSLEEELVMDGRLTVTTDETGHISAVQKGEGGAFKLEEVMYAVETAFKKAEEIRKIVLEAIKKSGE”, the “soluble on expression in E. coli” value was “soluble”. For “MSDNSTGTTKSRSNVDDVQAHYDLSDAFFALFQDPTRTYSCAYFERDDMTLHEAQVAKLDLTLGKLGLEPGMTLLDVGCGWGSVMKRAVERYDVNVVGLTLSKNQHAYCQQVLDKVDTNRSHRVLLSDWANFSEPVDRIVTIEAIEHFGFERYDDFFKFAYNAMPADGVMLLHSITGLHVKQVIERGIPLTMEMAKFIRFIVTDIFPGGRLPTIETIEEHVTKAGFTITDIQSLQPHFARTLDLWAEALQAHKDEAIEIQSAEVYERYMKYLTGCAKAFRMGYIDCNQFTLAK”, the “soluble on expression in E. coli” value was “soluble”. In the case of “MSDPHQSQQLVTAGTALSEASAAAVLVHGRGATARSIVQMGAEFQQDGLALLAPQAARNTWYPNSFLSPVEQNEPGRSSGLQAIEDAVTKAAEAGIPTDHVLILGFSQGACLASEFVARNPQRYGGLVALSGGLIGESIDESEYEGDIEETPVFLGCSNVDPHIPEERVHVTASVFERLNGDVEERIYEGMGHGVNEDELAYVSSLTAGLVN”, the “soluble on expression in E. coli” value is reported as “not soluble”. With “MSDRIASEKLRSKLMSADEAAQFVNHGDKVGFSGFTGAGYPKALPTAIANRAKEAHGAGNDYAIDLFTGASTAPDCDGVLAEADAIRWRMPYASDPIMRNKINSGSMGYSDIHLSHSGQQVEEGFFGQLNVAVIEITRITEEGYIIPSSSVGNNVEWLNAAEKVILEVNSWQSEDLEGMHDIWSVPALPNRIAVPINKPGDRIGKTYIEFDTDKVVAVVETNTADRNAPFKPVDDISKKIAGNFLDFLESEVAAGRLSYDGYIMQSGVGNVPNAVMAGLLESKFENIQAYTEVIQDGMVDLIDAGKMTVASATSFSLSPEYAEKMNNEAKRYRESIILRPQQISNHPEVIRRVGLIATNGLIEADIYGNVNSTNVSGSRVMNGIGGSGDFTRNGYISSFITPSEAKGGAISAIVPFASHIDHTEHDVMVVISEYGYADLRGLAPRERVAKMIGLAHPDYRPLLEEYYARATSGDNKYMQTPHDLATAFDFHINLAKNGSMKA” the “soluble on expression in E. coli” value was “soluble”.
